From PMC9332313, “Folding and Binding Mechanisms of the SH2 Domain from Crkl” (Biomolecules, 2022) come the findings set out here.

For orientation: pKa means the pH at which an ionisable group is half protonated. In general, koff refers to the rate constant with which the complex falls apart. Lower therefore signals a long-lived complex.

One data set concerns the target His60 (UniProt position 60, NSRVSHYIINS). The data set can be described thus: kinetics (stopped-flow fluorescence binding and displacement). The conditions noted are these: 283 K; 0.5 M NaCl plus 50 mM buffer; 50 mM sodium-acetate pH 5.0 and 5.5; 50 mM BisTRIS pH 6.0 and 6.8; 50 mM sodium-HEPES pH 7.5; 50 mM TrisHCl pH 8.0, 8.5 and 9.0; Binding reaction with dansyl-Pax112-123 phosphopeptide. The pKa comes from both association and dissociation rate constants, so no free or bound state is specified.

For data set [1], the target named is dansylated Pax_(112–123) peptide (Dans-GEEEHV-pY-SFPNK). Kind of data set: stopped-flow fluorescence displacement kinetics (FRET); complex of 2 µM H60A mutant and 20 µM dansyl-Pax112-123 mixed with excess non-dansylated Pax112-123 (40 μM); 283 K; pH 5.5.
Data set [2] shares this target. Kind of data set: stopped-flow fluorescence displacement kinetics (FRET); complex of 2 µM H60A mutant and 20 µM dansyl-Pax112-123 mixed with excess non-dansylated Pax112-123 (40 μM); 283 K; pH 6.8.
Data set [3] has the same target. The data set can be described thus: stopped-flow fluorescence displacement kinetics (FRET); complex of 2 µM H60A mutant and 20 µM dansyl-Pax112-123 mixed with excess non-dansylated Pax112-123 (40 μM); 283 K; pH 7.5.

“Crk-like protein (Crkl) SH2 domain (Homo sapiens (inferred; not stated in the article))”: the pKa in the data set with His60 is listed as 7.1 ± 0.2.

In the case of “SH2 domain of Crkl protein (residues 1-111), H60A variant (from UniProt P46109 1-111) (domain or fragment)”, the off-rate constant (koff) amounted to 212 s⁻¹ in data set [1], 152 s⁻¹ in data set [2] and 237 s⁻¹ in data set [3].
